# T1: FLT3 (Homo sapiens, UniProt P36888)
# T1 construct: expressed in transfected cells; host or cells: RS4-11
# T1 sequence (P36888 27-993): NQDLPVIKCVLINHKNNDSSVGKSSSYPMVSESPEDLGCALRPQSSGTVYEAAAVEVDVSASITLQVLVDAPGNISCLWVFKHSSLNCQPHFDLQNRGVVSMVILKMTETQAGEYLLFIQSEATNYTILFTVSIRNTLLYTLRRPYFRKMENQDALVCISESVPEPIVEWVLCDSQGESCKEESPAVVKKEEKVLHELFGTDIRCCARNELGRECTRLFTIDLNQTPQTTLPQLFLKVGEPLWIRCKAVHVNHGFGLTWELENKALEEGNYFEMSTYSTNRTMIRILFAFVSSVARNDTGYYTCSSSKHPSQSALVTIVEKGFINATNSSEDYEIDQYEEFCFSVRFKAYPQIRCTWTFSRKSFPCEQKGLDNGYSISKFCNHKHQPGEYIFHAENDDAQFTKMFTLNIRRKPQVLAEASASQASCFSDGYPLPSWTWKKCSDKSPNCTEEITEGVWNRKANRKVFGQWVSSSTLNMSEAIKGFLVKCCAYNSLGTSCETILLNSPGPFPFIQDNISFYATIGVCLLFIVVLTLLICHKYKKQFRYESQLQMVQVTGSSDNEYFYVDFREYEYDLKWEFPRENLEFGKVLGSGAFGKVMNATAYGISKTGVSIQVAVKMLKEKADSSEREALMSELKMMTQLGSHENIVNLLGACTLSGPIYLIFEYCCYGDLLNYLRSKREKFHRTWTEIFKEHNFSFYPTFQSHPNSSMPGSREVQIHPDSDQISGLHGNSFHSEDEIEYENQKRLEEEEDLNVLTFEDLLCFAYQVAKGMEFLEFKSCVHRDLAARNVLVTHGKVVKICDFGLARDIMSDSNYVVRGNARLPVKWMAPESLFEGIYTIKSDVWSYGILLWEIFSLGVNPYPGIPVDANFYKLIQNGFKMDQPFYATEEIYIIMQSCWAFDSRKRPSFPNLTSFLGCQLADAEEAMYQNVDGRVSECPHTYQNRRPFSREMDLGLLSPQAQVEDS
# B1: A3 antibody: human monoclonal antibody against FLT3; VH SEQ ID NO:1, VL SEQ ID NO:2 (antibody, V domains shown)
# VH: EVQLVESGGSLVKPGGSLRLSCAASGFTFSNSYMNWVRQAPGKGLEWISDISGSSRDIDYADFVKGRFTISRDNATNSLYLQMNSLRAEDTAVYYCVRSGNSGMDVWGRGTLVTVSS
# VL: QSVLTQPASVSGSPGQSITISCAGTSSDVGGGYYVSWYQQHPGKAPKLMIYYDSYRPSGVSNRFSGSKSGNTASLTISGLQAEDEADYYCSSYTNNSTRVFGGGTKLEIK
# modifications: Synthetic VH domain of A3; Synthetic VL region of A3
# Target: T1, FLT3
# Assay: FL-induced FLT3 auto-phosphorylation assay in RS4-11 cells
# Assay type: cell-based
# Details: antibody at 10 and 100 μg/ml
# Procedure: Cell. RS4-11 cells, used for auto-phosphorylation assays, were maintained in RPMI-1640 (Invitrogen) and 10% Fetal Calf Serum. They were transfected as in the case of HEK cells (see above)
# Auto-Phosphorylation assays. A density of 50,000 cells per well was used to carry out this assay in suspension in 384-well small volume plates to determine the degree of phosphorylation of FLT3. In the aim to discover antagonist compounds and to develop this assay, we were determined the efficiency of FL on RS4-11 cells.
# Cells were incubated with 1 nM of rh-FL in the presence of increasing concentrations of the antibody. In the plates containing RS4-11 cells (5 μL/well), 5 μL of compounds to be tested were added and incubated for 1 h at room temperature prior to the addition of 2 μof rh-FL at 0.1 μM. After incubation of 3 min at room temperature of rh-FL, 4 μl of lysis buffer were added and incubated for 2 h at room temperature. A mix of anti-FLT3 and an anti-TYR-969 FLT3 antibodies labeled with Lumi4-Tb and d2 respectively (4 μL) diluted in Tag-lites) labelling medium, were added on cell lysate. Plates were then incubated at room temperature for 2 h or overnight before signal detection (as above).
molecule,measurement,value
B1,FL-induced FLT3 autophosphorylation,inhibits FL-induced FLT3 autophosphorylation
